Results: paper PMC6454087

Molecular target: mouse rec1c sNASP variant protein (V281I, L282F) (mouse)
Assay: BLI; Octet K2, 30 C; sNASP WT or variant immobilised on aminopropylsilane (APS) biosensors, histones in assay buffer at various concentrations (62.5 to 1,000 nM shown for H4), association 240 s; n = 4

B1: mouse histone H1a (natural protein)
chain: MSETAPVAQAASTATEKPAAAKKTKKPAKAAAPRKKPAGPSVSELIVQAVSSSKERSGVSLAALKKSLAAAGYDVEKNNSRIKLGLKSLVNKGTLVQTKGTGAAGSFKLNKKAESKAITTKVSVKAKASGAAKKPKKTAGAAAKKTVKTPKKPKKPAVSKKTSKSPKKPKVVKAKKVAKSPAKAKAVKPKASKAKVTKPKTPAKPKKAAPKKK
- Kd: 412 nM
- kon: 9590 M⁻¹ s⁻¹
